Measurements as given in PMC3086075.

Target: recombinant class C acid phosphatase from Pasteurella multocida (Pasteurella multocida)
Assay: AUC

## recombinant class C acid phosphatase from Pasteurella multocida (enzyme)
  stoichiometry N: 2
